Laboratory results: the supplement of paper PMC9112550, “Optimization of the antimicrobial peptide Bac7 by deep mutational scanning” (BMC Biology, 2022)

tested on: Escherichia coli TOP10; test: shrunken log2 fold change of peptide-encoding DNA abundance (4.5 h post-induction vs induction); higher = less antimicrobial activity (less host growth inhibition); conditions: time post-induction: 4.5 h; library: site-saturation at positions 5, 18, 19, 20
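Note: peptides expressed intracellularly from a pBAD plasmid library in pooled LB shake-flask culture, induced with 0.3% L-arabinose, DNA abundance read by NGS, three biological replicates, DESeq2 with apeglm shrinkage.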

| Sequence | shrunken log2 fold change |
| --- | --- |
| RRIRLRPPRLPRPRPRPFQPPRP | 0.113 |
| RRIRLRPPRLPRPRPRPFRIPRP | 0.0742 |
| RRIRLRPPRLPRPRPRPFRNPRP | -0.0827 |
| RRIRLRPPRLPRPRPRPFSVPRP | -0.323 |
| RRIRLRPPRLPRPRPRPFTMPRP | -0.764 |
| RRIRLRPPRLPRPRPRPFTNPRP | 0.0104 |
| RRIRLRPPRLPRPRPRPFTPPRP | -0.265 |
| RRIRLRPPRLPRPRPRPFTSPRP | -0.153 |
| RRIRLRPPRLPRPRPRPFVGPRP | 4.94e-06 |
| RRIRLRPPRLPRPRPRPFVRPRP | 0.00108 |
| RRIRLRPPRLPRPRPRPFWGPRP | -0.507 |
| RRIRLRPPRLPRPRPRPFWLPRP | 0.0573 |
| RRIRLRPPRLPRPRPRPFWNPRP | -0.275 |
| RRIRLRPPRLPRPRPRPFYKPRP | -0.349 |
| RRIRLRPPRLPRPRPRPFYRPRP | -0.295 |
| RRIRLRPPRLPRPRPRPGCHPRP | -0.268 |
| RRIRLRPPRLPRPRPRPGCNPRP | -0.162 |
| RRIRLRPPRLPRPRPRPGDRPRP | -0.0244 |
| RRIRLRPPRLPRPRPRPGDYPRP | -0.0616 |
| RRIRLRPPRLPRPRPRPGEMPRP | 0.0594 |
| RRIRLRPPRLPRPRPRPGERPRP | 0.33 |
| RRIRLRPPRLPRPRPRPGFEPRP | 0.168 |
| RRIRLRPPRLPRPRPRPGFHPRP | 0.0368 |
| RRIRLRPPRLPRPRPRPGIFPRP | -0.313 |
| RRIRLRPPRLPRPRPRPGITPRP | -0.322 |

| Sequence | shrunken log2 fold change |
| --- | --- |
| RRIRLRPPRLPRPRPRPGKDPRP | -0.153 |
| RRIRLRPPRLPRPRPRPGKFPRP | 0.117 |
| RRIRLRPPRLPRPRPRPGPHPRP | -0.0887 |
| RRIRLRPPRLPRPRPRPGPRPRP | 0.693 |
| RRIRLRPPRLPRPRPRPGQDPRP | 0.0899 |
| RRIRLRPPRLPRPRPRPGTKPRP | 0.2 |
| RRIRLRPPRLPRPRPRPGVHPRP | -0.308 |
| RRIRLRPPRLPRPRPRPGWRPRP | 0.317 |
| RRIRLRPPRLPRPRPRPGWTPRP | 0.208 |
| RRIRLRPPRLPRPRPRPHADPRP | -0.299 |
| RRIRLRPPRLPRPRPRPHAQPRP | 0.133 |
| RRIRLRPPRLPRPRPRPHGTPRP | 0.0824 |
| RRIRLRPPRLPRPRPRPHICPRP | -0.162 |
| RRIRLRPPRLPRPRPRPHIDPRP | -0.135 |
| RRIRLRPPRLPRPRPRPHIGPRP | -0.0255 |
| RRIRLRPPRLPRPRPRPHIHPRP | -0.29 |
| RRIRLRPPRLPRPRPRPHKMPRP | -0.355 |
| RRIRLRPPRLPRPRPRPHKTPRP | 0.0373 |
| RRIRLRPPRLPRPRPRPHNQPRP | -0.479 |
| RRIRLRPPRLPRPRPRPHPFPRP | 0.0808 |
| RRIRLRPPRLPRPRPRPHQIPRP | -0.249 |
| RRIRLRPPRLPRPRPRPHRDPRP | -0.0661 |
| RRIRLRPPRLPRPRPRPHVGPRP | -0.442 |
| RRIRLRPPRLPRPRPRPHVTPRP | -0.198 |
| RRIRLRPPRLPRPRPRPHWEPRP | 0.0215 |

| Sequence | shrunken log2 fold change |
| --- | --- |
| RRIRLRPPRLPRPRPRPHWHPRP | -0.249 |
| RRIRLRPPRLPRPRPRPHWQPRP | 0.0281 |
| RRIRLRPPRLPRPRPRPHYCPRP | -0.0889 |
| RRIRLRPPRLPRPRPRPICAPRP | 0.0264 |
| RRIRLRPPRLPRPRPRPIEGPRP | 0.0046 |
| RRIRLRPPRLPRPRPRPIEQPRP | -0.0092 |
| RRIRLRPPRLPRPRPRPIEYPRP | -0.426 |
| RRIRLRPPRLPRPRPRPIFHPRP | -0.192 |
| RRIRLRPPRLPRPRPRPIFLPRP | -0.333 |
| RRIRLRPPRLPRPRPRPIGAPRP | -0.0568 |
| RRIRLRPPRLPRPRPRPIGDPRP | -0.118 |
| RRIRLRPPRLPRPRPRPIGHPRP | -0.212 |
| RRIRLRPPRLPRPRPRPIGVPRP | -0.0539 |
| RRIRLRPPRLPRPRPRPIHCPRP | -0.0842 |
| RRIRLRPPRLPRPRPRPIHLPRP | -0.453 |
| RRIRLRPPRLPRPRPRPIHNPRP | -1.05 |
| RRIRLRPPRLPRPRPRPILIPRP | 0.198 |
| RRIRLRPPRLPRPRPRPILQPRP | -0.129 |
| RRIRLRPPRLPRPRPRPILSPRP | -0.0305 |
| RRIRLRPPRLPRPRPRPIMLPRP | -1.12 |
| RRIRLRPPRLPRPRPRPINPPRP | 0.132 |
| RRIRLRPPRLPRPRPRPINWPRP | -0.434 |
| RRIRLRPPRLPRPRPRPIQCPRP | -0.301 |
| RRIRLRPPRLPRPRPRPIRSPRP | -0.0199 |
| RRIRLRPPRLPRPRPRPIRYPRP | -0.272 |

| Sequence | shrunken log2 fold change |
| --- | --- |
| RRIRLRPPRLPRPRPRPITAPRP | -0.0526 |
| RRIRLRPPRLPRPRPRPIWGPRP | 0.112 |
| RRIRLRPPRLPRPRPRPIWLPRP | 0.132 |
| RRIRLRPPRLPRPRPRPIWNPRP | 0.0155 |
| RRIRLRPPRLPRPRPRPIYQPRP | -0.385 |
| RRIRLRPPRLPRPRPRPKALPRP | -0.224 |
| RRIRLRPPRLPRPRPRPKAMPRP | -0.023 |
| RRIRLRPPRLPRPRPRPKCHPRP | -0.387 |
| RRIRLRPPRLPRPRPRPKDAPRP | -0.11 |
| RRIRLRPPRLPRPRPRPKELPRP | 0.0165 |
| RRIRLRPPRLPRPRPRPKENPRP | 0.00493 |
| RRIRLRPPRLPRPRPRPKFTPRP | -0.289 |
| RRIRLRPPRLPRPRPRPKGWPRP | 0.342 |
| RRIRLRPPRLPRPRPRPKIAPRP | -0.203 |
| RRIRLRPPRLPRPRPRPKITPRP | -0.203 |
| RRIRLRPPRLPRPRPRPKIYPRP | -0.492 |
| RRIRLRPPRLPRPRPRPKKFPRP | -0.322 |
| RRIRLRPPRLPRPRPRPKKHPRP | -0.154 |
| RRIRLRPPRLPRPRPRPKNQPRP | -0.202 |
| RRIRLRPPRLPRPRPRPKPAPRP | 0.679 |
| RRIRLRPPRLPRPRPRPKPLPRP | 0.144 |
| RRIRLRPPRLPRPRPRPKPNPRP | 0.288 |
| RRIRLRPPRLPRPRPRPKPWPRP | 0.387 |
| RRIRLRPPRLPRPRPRPKPYPRP | 0.00713 |
| RRIRLRPPRLPRPRPRPKQLPRP | -0.0685 |

| Sequence | shrunken log2 fold change |
| --- | --- |
| RRIRLRPPRLPRPRPRPKQQPRP | -0.134 |
| RRIRLRPPRLPRPRPRPKQYPRP | -0.661 |
| RRIRLRPPRLPRPRPRPKSMPRP | -0.0449 |
| RRIRLRPPRLPRPRPRPKVGPRP | 0.109 |
| RRIRLRPPRLPRPRPRPKWHPRP | -0.207 |
| RRIRLRPPRLPRPRPRPKYDPRP | -0.0843 |
| RRIRLRPPRLPRPRPRPKYSPRP | -0.622 |
| RRIRLRPPRLPRPRPRPLAAPRP | 0.345 |
| RRIRLRPPRLPRPRPRPLCNPRP | -0.453 |
| RRIRLRPPRLPRPRPRPLCYPRP | -0.15 |
| RRIRLRPPRLPRPRPRPLEKPRP | -0.0425 |
| RRIRLRPPRLPRPRPRPLHCPRP | 0.118 |
| RRIRLRPPRLPRPRPRPLIRPRP | -0.547 |
| RRIRLRPPRLPRPRPRPLMHPRP | 0.0668 |
| RRIRLRPPRLPRPRPRPLMVPRP | -0.326 |
| RRIRLRPPRLPRPRPRPLMYPRP | -0.327 |
| RRIRLRPPRLPRPRPRPLNFPRP | -0.268 |
| RRIRLRPPRLPRPRPRPLNMPRP | -0.461 |
| RRIRLRPPRLPRPRPRPLNRPRP | -0.317 |
| RRIRLRPPRLPRPRPRPLPMPRP | 0.0573 |
| RRIRLRPPRLPRPRPRPLPWPRP | 0.334 |
| RRIRLRPPRLPRPRPRPLQAPRP | 0.128 |
| RRIRLRPPRLPRPRPRPLQEPRP | -0.101 |
| RRIRLRPPRLPRPRPRPLQKPRP | 0.141 |
| RRIRLRPPRLPRPRPRPLQNPRP | 0.166 |

| Sequence | shrunken log2 fold change |
| --- | --- |
| RRIRLRPPRLPRPRPRPLRVPRP | 0.4 |
| RRIRLRPPRLPRPRPRPLTDPRP | 0.133 |
| RRIRLRPPRLPRPRPRPLTGPRP | -0.0782 |
| RRIRLRPPRLPRPRPRPLTSPRP | -0.179 |
| RRIRLRPPRLPRPRPRPLVCPRP | -0.0954 |
| RRIRLRPPRLPRPRPRPLWQPRP | -0.0523 |
| RRIRLRPPRLPRPRPRPLWRPRP | 0.785 |
| RRIRLRPPRLPRPRPRPLWWPRP | 0.531 |
| RRIRLRPPRLPRPRPRPLYDPRP | -0.924 |
| RRIRLRPPRLPRPRPRPLYGPRP | -0.249 |
| RRIRLRPPRLPRPRPRPMANPRP | -0.0744 |
| RRIRLRPPRLPRPRPRPMDIPRP | -0.568 |
| RRIRLRPPRLPRPRPRPMEEPRP | 0.156 |
| RRIRLRPPRLPRPRPRPMFCPRP | -0.752 |
| RRIRLRPPRLPRPRPRPMFDPRP | -0.249 |
| RRIRLRPPRLPRPRPRPMFGPRP | 0.109 |
| RRIRLRPPRLPRPRPRPMFMPRP | -0.208 |
| RRIRLRPPRLPRPRPRPMHHPRP | 0.0581 |
| RRIRLRPPRLPRPRPRPMICPRP | 0.13 |
| RRIRLRPPRLPRPRPRPMINPRP | -0.224 |
| RRIRLRPPRLPRPRPRPMKHPRP | -0.409 |
| RRIRLRPPRLPRPRPRPMKNPRP | -0.303 |
| RRIRLRPPRLPRPRPRPMKQPRP | 0.132 |
| RRIRLRPPRLPRPRPRPMKTPRP | -0.034 |
| RRIRLRPPRLPRPRPRPMKVPRP | -0.00674 |
